From patent US7387779B2, “Anti-angiogenic proteins and fragments and methods of use thereof” (Beth Israel Deaconess Medical Center, priority 1998, dated 2008)

Key:
[1] = test system: Caspase-3 in PC-3 cells; test: Caspase-3 assay; format: cell-based, human
Description: Tumstatin also altered cell morphology of C-PAE cells as monitored by phase contrast microscopy. After treating cells with 20 μg/ml of Tumstatin in the presence of 10% FCS for 24 hours on fibronectin-coated plates, the typical morphological features of apoptotic cells, membrane blebbing, cytoplasmic shrinkage, and chromatin condensation could be observed. […] Caspase-3 assay: Caspase-3 (CPP32) is an intracellular protease activated at the early stage of apoptosis, and initiates cellular breakdown by degrading structural and DNA repair proteins (Casciola-Rosen, L. et al., 1996, J. Exp. Med. 183:1957-64; Salvesen, G. S. et al., 1997, Cell 91:443-46). The protease activity of Caspase-3 was measured spectrophotometrically by detection of the chromophore (p-nitroanilide) cleaved from the labeled substrate (DEVD-pNA). C-PAE cells or PC-3 cells (0.5×10^6 per well) were plated onto a 6-well plate precoated with fibronectin (10 μg/ml) in DMEM supplemented with 10% FCS, and incubated overnight. The next day, the medium was replaced with DMEM containing 2% FCS and then incubated overnight at 37° C. Then cells were then stimulated with bFGF (3 ng/ml) in DMEM supplemented with 2% FCS, and also containing either TNF-α (80 ng/ml, positive control) or Tumstatin (10 μg/ml), and incubated for 24 hours. Controls received PBS buffer. […] Cells were counted and resuspended in cell lysis buffer (Clontech) at a concentration of 4×10^7 cells/ml. […] The absorbance was measured in a microplate reader (Bio-Rad, Hercules, Calif., USA) at 405 nm. […]
The results are shown in FIG. 53, which is a histogram showing caspase-3 activity (as measured at OD405, y-axis) of (x-axis) the control, control+DEVD-fmk, TNF-α, TNF-α+DEVD-fmk, Tumstatin-44-131 (1 μg/ml and 10 μg/ml), and Tumstatin-44-131 (10 μg/ml)+DEVD-fmk. […]
The protease activity of Caspase-3 in cells treated with T3 peptide was measured spectrophotometrically by detection of the chromophore (p-nitroanilide) cleaved from the labeled substrate (DEVD-pNA). […]

[2] = test system: Goodpasture autoantibody; test: Reactivity with Goodpasture autoantibody (western blotting); format: binding, human
Excerpt: Goodpasture syndrome is an autoimmune disease characterized by pulmonary hemorrhage and/or rapidly progressing glomerulonephritis, which are caused by the disruption of glomerular and alveolar basement membranes through immune injury associated with autoantibody activity against α3(IV) NC1. Recently, the most probable disease-related pathogenic epitope was identified in the N-terminal portion (Kalluri, R. et al., 1996, J. Biol. Chem. 271:9062-8; Hellmark, T. et al., 1999, Kidney Int. 55:938-44), and was then further confined within the N-terminal 40 amino acids (Hellmark, T. et al., 1999, J. Biol. Chem. 274:25862-8; Netzer, K. O. et al., 1999, J. Biol. Chem. 274:11267-74). The N-terminal Tumstatin-44-131 consists of residues 44-131 of Tumstatin, which is outside of the Goodpasture autoepitope. To further confirm that Tumstatin-44-131 would not be detected by Goodpasture autoantibody, antisera from patients with Goodpasture was used for western blotting.

[3] = test system: HUVEC cells; test: Cell adhesion assay with integrin blocking antibodies; format: cell-based, human; conditions: label = plate coating
Description: The attachment of HUVECs to Tumstatin-coated plates in the presence of integrin subunits α1 through α6, β1, and αvβ3 integrin blocking antibody was examined. This assay was performed according to the method of Senger et al. (Senger, D. R. et al, 1997, Proc. Natl. Acad. Sci. USA 94:13612-7), with minor modification. 96-well plates were coated with either human Tumstatin, mouse laminin-1, or human Type IV collagen (Collaborative Biomedical Prods., Bedford, Mass., USA) at a concentration of 10 μg/ml overnight at 37° C. Vitronectin (Collaborative Biomed. Prods.) at a concentration of 0.5 μg/ml was then used to coat the plates. The remaining protein binding sites were blocked with 100 mg/ml of BSA (Sigma Chemical Co., St. Louis, Mo., USA) in PBS for 2 hours. HUVEC cells were grown to subconfluence (70-80%) in EGM-2 medium, gently trypsinized and resuspended in serum-free medium (1.5×10^5 cells/ml). The cells were mixed with 10 μg/ml of either mouse IgG, (control) (Life Technologies/Gibco BRL, Gaithersberg, Md., USA) or antibody (mouse monoclonal antibody to the human β1 integrin (clone P4C10) (Life Technologies/Gibco BRL); monoclonal antibody to human integrins α1 through α.6 (CHEMICON Int'l, Temecula, Calif., USA); αvβ3 integrin (clone LM609) (CHEMICON Int'l) and incubated for 15 minutes at room temperature, with gentle agitation. One hundred microliters of the cell suspension was then added to each well and incubated for 45 minutes at 37° C. Unattached cells were removed by washing, and the number of attached cells were counted after staining with methylene blue. C-PAE cells were used in separate experiments, following the above procedure.
Cell Attachment Activity: Cell attachment using endothelial cells was performed as described above. HUVEC or C-PAE cells were incubated with monoclonal anti-human integrin antibodies, control mouse IgG (10 μg/ml), or synthetic peptide, plated onto pre-coated 96-well plates, and the number of cells attaching to the plates was determined using measurement of methylene blue staining at OD655. […] CNGRC peptide was used as a control.
The cell attachment assay was performed as described above.

[4] = test system: C-PAE; test: Endothelial tube formation assay (Table 4); format: cell-based, bovine
Description: Deletion fragments of tumstatin were cloned into bacterial expression vectors, expressed, purified using nickel chromoatography, and then analyzed for in vitro anti-angiogenic, and associated, activity. Special efforts were made to ensure the removal of contaminating endotoxins from the protein preparations. Full-length Tumstatin, Tumstatin-N53 and two additional deletion mutants (Tum-2C and Tum-KE) were made and tested. The deletion mutants were tested for endothelial cell proliferation, cell cycle progression, apoptosis, and endothelial tube formation.

## LQRFTTMPFLFCNVNDVCNF [T3]
[1]
  Caspase-3 activity in nonendothelial PC-3 cells: no difference

B1: Tumstatin: NC1 domain of the α3 chain of type IV collagen, residues 1-244 (SEQ ID NO:10) (protein, listed as Homo sapiens)
chain: GLKGKRGDSGSPATWTTRGFVFTRHSQTTAIPSCPEGTVPLYSGFSFLFVQGNQRAHGQDLGTLGSCLQRFTTMPFLFCNVNDVCNFASRNDYSYWLSTPALMPMNMAPITGRALEPYISRCTVCEGPAIAIAVHSQTTDIPPCPHGWISLWKGFSFIMFTSAGSEGTGQALASPGSCLEEFRASPFLECHGRGTCNYYSNSYSFWLASLNPERMFRKPIPSTVKAGELEKIISRCQVCMKKRH
[2]
  detection by antisera / autoantibodies from patients with Goodpasture syndrome: detected
[3]
  inhibition of HUVEC attachment by antibody to subunits α1 through α4: did not block
  inhibition of HUVEC attachment by αvβ3 antibody and β1 antibody together: 91%
[3]; 10 μg/ml antibody
  inhibition of HUVEC attachment to coated plates by α5 antibody: 20%
  inhibition of HUVEC attachment to coated plates by α6 antibody: 54%
  inhibition of HUVEC attachment to coated plates by αvβ3 antibody: 80%
  inhibition of HUVEC attachment to coated plates by β1 antibody: 54%
[4]
  Tube (Endothelial tube formation assay): active
[1]
  Caspase-3 activity in nonendothelial PC-3 cells: no difference

B2: Tumstatin-44-131: residues 44 to 131 of full-length Tumstatin (SEQ ID NO:33) (protein)
chain: FSFLFVQGNQRAHGQDLGTLGSCLQRFTTMPFLFCNVNDVCNFASRNDYSYWLSTPALMPMNMAPITGRALEPYISRCTVCEGPAIAI
modifications: Tumstatin-45-132 (amino acids 45-132 of SEQ ID NO10)
[2]
  detection by antisera / autoantibodies from patients with Goodpasture syndrome: failed to detect
[3]; 10 μg/ml antibody
  inhibition of HUVEC attachment to coated plates by αvβ3 antibody: 47.1%
  inhibition of HUVEC attachment to coated plates by β1 antibody: 47.5%
[4]
  Tube (Endothelial tube formation assay): active
[1]
  Caspase-3 activity in nonendothelial PC-3 cells: not observed

B3: Tum-1: residues 54 to 244 of Tumstatin, lacking the N-terminal 53 amino acids (SEQ ID NO:22) (protein)
chain: QRAHGQDLGTLGSCLQRFTTMPFLFCNVNDVCNFASRNDYSYWLSTPALMPMNMAPITGRALEPYISRCTVCEGPAIAIAVHSQTTDIPPCPHGWISLWKGFSFIMFTSAGSEGTGQALASPGSCLEEFRASPFLECHGRGTCNYYSNSYSFWLASLNPERMFRKPIPSTVKAGELEKIISRCQVCMKKRH
modifications: Tum-1 (Tumstatin N-53) (amino acids 54-244 of SEQ ID NO10)
[2]
  detection by antisera / autoantibodies from patients with Goodpasture syndrome: did not bind autoantibodies
[3]; 10 μg/ml antibody
  inhibition of HUVEC attachment to coated plates by α6 antibody: did not
  inhibition of HUVEC attachment to coated plates by αvβ3 antibody: inhibited this adhesion
  inhibition of HUVEC attachment to coated plates by β1 antibody: inhibited this adhesion
[4]
  Tube (Endothelial tube formation assay): active
